Measured values as given in the supplement of paper PMC10567573.

B1: KLHL12 (parent)
chain: LDYTADEDGVWYSVAPMNVRRGLA
B2: KLHL13 (parent)
chain: GVSKVGLRKIIDFIYTAKLSLNMD

Variants of: B1
Assay: protein stability index of a GFP-peptide fusion (GPS, HEK-293T) (PSI 1-6); higher = more stable
Conditions: c terminus: a fixed tail appended
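Also: lentivirally expressed fusions sorted by FACS into six bins by GFP to DsRed ratio, PSI derived from sequencing read proportions per bin multiplied by bin number.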

Protein stability index: each site, then its substitutions
W11: C 3.05, F 2.85, T 2.99, E 4.55, A 3.86, M 2.72, K 3.18, I 2.61, P 3.56, D 4.35, H 3.05, Q 3.38, V 3.62, S 3.62, R 2.8, G 3.69, Y 2.39, N 3.97, L 3.21
L1: W 2.53, A 3.26, T 3.18, V 2.25, K 2.75, E 3.53, F 2.16, Y 2.32, Q 4, I 1.89, N 3.92, D 3.47, R 2.99, C 2.75, H 2.67, M 2.2, S 3.24, P 3.41, G 3.19
Y3: R 2.99, D 3.35, L 2.22, M 2.33, Q 3.69, C 2.47, I 1.85, K 3.58, A 3.65, E 3.6, T 3.01, P 3.6, G 3.22, S 3.61, H 3.43, F 2.29, V 1.78, N 3.78, W 1.94
A5: L 1.29, M 2.05, N 2.19, C 1.68, V 2.02, T 1.94, R 2.15, F 1.37, E 2.14, W 2.46, D 2.76, H 1.93, Q 2.06, P 2.23, S 1.8, G 2.08, K 2.35, Y 2.6, I 2.99
E7: A 1.28, W 2.19, F 2.55, T 1.64, H 1.89, Q 2.43, D 1.46, N 2.09, S 1.8, L 2.79, M 1.91, K 2.01, V 1.44, I 2.43, P 2.02, C 1.65, Y 1.95, G 1.7, R 2.77
D2: F 1.98, R 1.93, W 2.19, K 1.68, E 1.76, T 1.49, C 2.46, S 1.84, N 1.74, H 1.67, L 1.55, P 2.48, G 2.96, A 2.3, M 2.4, Y 2.43, I 1.37, Q 1.47
G9: P 2.75, A 2.17, F 1.99, R 1.75, H 2.2, W 1.94, E 2.33, T 2.15, C 1.47, Y 2.37, V 1.82, I 1.88, L 1.61, N 2.5, K 1.75, S 2.03, M 2.26, D 2.63, Q 2.21
V10: W 1.63, S 2.2, A 3.22, R 2.7, T 2.82, P 2.47, Y 2.44, C 2.44, H 2.44, N 3.06, K 3.18, F 1.86, E 3.37, M 2.32, G 3.38, Q 2.99, I 1.84, D 3.36, L 3.09
T4: P 3.09, C 1.98, F 1.7, A 2.24, E 2.69, I 2.12, G 2.1, H 1.77, Y 2.57, W 1.74, N 2.24, K 2.57, V 1.98, S 2.81, D 2.41, Q 2.45, R 1.51, M 2.48, L 4.91
D8: M 1.93, P 2.26, I 1.96, H 1.82, A 1.67, E 2.79, N 1.42, G 1.74, F 1.21, C 2.81, V 1.6, W 2.1, R 1.56, Q 2.49, Y 2.23, K 2.24, S 2.69, L 1.73, T 1.48
Y12: F 2.23, K 3.63, C 3.07, L 2.02, Q 3.61, N 3.45, M 2.36, R 3.37, D 3.74, E 4.04, P 3.52, S 3.12, A 3.55, H 3.24, I 1.89, G 2.84
D6: M 2.18, P 2.46, E 2.16, L 2.08, K 2.44, T 1.91, I 1.4, F 2.98, N 1.27, R 2.47, A 1.93, Q 1.7, H 1.85, G 2.36, C 2.61, W 2.71, S 1.91, Y 1.51, V 1.99

Variants of: B2
Assay: as above
Conditions: c terminus: a fixed tail appended

Protein stability index of substitutions, site by site:
Y15: T 2.52, M 2.48, P 1.84, N 4.89, R 4.12, Q 1.36
N22: P 4.34, Y 1.99, W 1.31, Q 1.9, L 2.11, A 3.65, D 2.3, E 2.73, I 2.68, R 2.09, V 1.32, M 2.26, F 3.75, H 2.41, S 2.36
T16: Y 2.74, I 2.72, G 2.86, P 2.57, M 1.95, V 1.81, H 1.63, W 1.79, E 1.95, R 2.69
S20: I 2.04, K 3.46, Q 1.68, V 1.96, L 2.67, N 3.26, A 3.46, P 2.25, W 1.85, H 2.7, E 4.11, R 2.11
D24: A 3.2, H 3.01, Y 2.2, F 2.82, R 3.43, K 1.71, T 3.01, M 2.28, V 2.49, L 2.01, Q 2.15, P 2.88, G 3.65, N 2.74
L19: D 1.36, N 3.62, T 2.95, Q 2.21, H 1.87, V 3.11, S 1.63, W 2.93, C 2.34
M23: R 3.14, H 3.04, A 2.48, S 1.79, C 2.45, D 2.09, N 1.53, T 2.19, G 3.36, Q 1.55, Y 3.73, K 1
L21: D 1.8, C 2.69, E 1.53, Q 3.01, W 1.96, S 2.72, P 1.86, A 1.94, N 1.83, F 2.21
K18: W 2.7, H 2.72, L 1.76, R 2.63, Q 3.22, S 3.44, P 2.89, M 2.52, N 2.17, Y 2.88, T 2.15, G 2.55, C 2.46
A17: G 3.4, K 2.73, Y 3.45, S 1.75, W 3.08, R 2.95, P 2.39, V 1.56, E 1.81
